Test results as given in US20130005646A1 (Novo Nordisk, published 2013).
One block for each binder: values may come before it. Starred links: 1 amine or outer side, 2 acyl side, 3 side chain; linkers in the order of their positions; H or OH if unused. Positions of bridges follow the written chain, without caps; N, C: chain ends. *: point of attachment. C20 diacid = O=C(O)CCCCCCCCCCCCCCCCCCC(=O)*; C18 diacid = O=C(O)CCCCCCCCCCCCCCCCC(=O)*; γGlu = O=C(O)[C@H](CCC(=O)[*:2])N[*:1]

Columns and labels:
[1] = target: T1, human calcitonin (a) receptor (human, UniProt P30988 25-474); assay: cell-based or functional assay
T1 sequence (looked up): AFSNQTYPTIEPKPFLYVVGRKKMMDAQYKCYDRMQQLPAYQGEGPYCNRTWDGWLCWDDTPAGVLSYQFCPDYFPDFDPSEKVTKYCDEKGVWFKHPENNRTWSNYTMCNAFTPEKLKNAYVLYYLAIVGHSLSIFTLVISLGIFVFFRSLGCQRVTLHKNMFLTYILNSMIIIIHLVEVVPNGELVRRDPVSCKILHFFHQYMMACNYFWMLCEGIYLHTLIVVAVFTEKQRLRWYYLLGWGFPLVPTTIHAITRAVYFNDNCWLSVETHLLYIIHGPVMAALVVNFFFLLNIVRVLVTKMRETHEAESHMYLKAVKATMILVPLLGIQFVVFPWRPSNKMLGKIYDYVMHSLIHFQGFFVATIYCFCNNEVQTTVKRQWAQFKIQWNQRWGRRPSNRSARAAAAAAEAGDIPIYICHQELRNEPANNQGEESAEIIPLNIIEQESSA

[2] = target: T2, human amylin 3(a) receptor (human calcitonin receptor + RAMP-3) (human, UniProt P30988 25-474; O60896 24-148); assay: cell-based or functional assay
T2 sequence (looked up) 1: T1 sequence (looked up)
T2 sequence (looked up) 2: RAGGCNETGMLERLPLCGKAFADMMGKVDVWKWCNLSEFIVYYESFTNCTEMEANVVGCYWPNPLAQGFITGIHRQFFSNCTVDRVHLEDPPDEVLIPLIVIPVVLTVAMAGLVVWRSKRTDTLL

B2: N-alpha-[(S)-4-Carboxy-4-(17-carboxyheptadecanoylamino)butyryl]-His-[His1,Glu14,His17]-pramlintide (peptide)
peptide: {C18 diacid-γGlu}-HHCNTATCATQRLAEFLHHSSNNFGPILPPTNVGSNTY-NH2
modifications: disulfide 3-8
SMILES: CC[C@H](C)[C@H](NC(=O)[C@@H]1CCCN1C(=O)CNC(=O)[C@H](Cc1ccccc1)NC(=O)[C@H](CC(N)=O)NC(=O)[C@H](CC(N)=O)NC(=O)[C@H](CO)NC(=O)[C@H](CO)NC(=O)[C@H](Cc1c[nH]cn1)NC(=O)[C@H](Cc1c[nH]cn1)NC(=O)[C@H](CC(C)C)NC(=O)[C@H](Cc1ccccc1)NC(=O)[C@H](CCC(=O)O)NC(=O)[C@H](C)NC(=O)[C@H](CC(C)C)NC(=O)[C@H](CCCNC(=N)N)NC(=O)[C@H](CCC(N)=O)NC(=O)[C@@H](NC(=O)[C@H](C)NC(=O)[C@@H]1CSSC[C@H](NC(=O)[C@H](Cc2c[nH]cn2)NC(=O)[C@H](Cc2c[nH]cn2)NC(=O)CC[C@H](NC(=O)CCCCCCCCCCCCCCCCC(=O)O)C(=O)O)C(=O)N[C@@H](CC(N)=O)C(=O)N[C@@H]([C@@H](C)O)C(=O)N[C@@H](C)C(=O)N[C@@H]([C@@H](C)O)C(=O)N1)[C@@H](C)O)C(=O)N[C@@H](CC(C)C)C(=O)N1CCC[C@H]1C(=O)N1CCC[C@H]1C(=O)N[C@H](C(=O)N[C@@H](CC(N)=O)C(=O)N[C@H](C(=O)NCC(=O)N[C@@H](CO)C(=O)N[C@@H](CC(N)=O)C(=O)N[C@H](C(=O)N[C@@H](Cc1ccc(O)cc1)C(N)=O)[C@@H](C)O)C(C)C)[C@@H](C)O
CTa receptor human EC50 [1]: 258 pM
Amylin receptor human EC50 [2]: 59 pM

B4: N-alpha-[(S)-4-Carboxy-4-(17-carboxyheptadecanoylamino)butyryl]-[Glu14,Arg17]-pramlintide (peptide)
peptide: {C18 diacid-γGlu}-KCNTATCATQRLAEFLRHSSNNFGPILPPTNVGSNTY-NH2
modifications: disulfide 2-7
SMILES: CC[C@H](C)[C@H](NC(=O)[C@@H]1CCCN1C(=O)CNC(=O)[C@H](Cc1ccccc1)NC(=O)[C@H](CC(N)=O)NC(=O)[C@H](CC(N)=O)NC(=O)[C@H](CO)NC(=O)[C@H](CO)NC(=O)[C@H](Cc1c[nH]cn1)NC(=O)[C@H](CCCNC(=N)N)NC(=O)[C@H](CC(C)C)NC(=O)[C@H](Cc1ccccc1)NC(=O)[C@H](CCC(=O)O)NC(=O)[C@H](C)NC(=O)[C@H](CC(C)C)NC(=O)[C@H](CCCNC(=N)N)NC(=O)[C@H](CCC(N)=O)NC(=O)[C@@H](NC(=O)[C@H](C)NC(=O)[C@@H]1CSSC[C@H](NC(=O)[C@H](CCCCN)NC(=O)CC[C@H](NC(=O)CCCCCCCCCCCCCCCCC(=O)O)C(=O)O)C(=O)N[C@@H](CC(N)=O)C(=O)N[C@@H]([C@@H](C)O)C(=O)N[C@@H](C)C(=O)N[C@@H]([C@@H](C)O)C(=O)N1)[C@@H](C)O)C(=O)N[C@@H](CC(C)C)C(=O)N1CCC[C@H]1C(=O)N1CCC[C@H]1C(=O)N[C@H](C(=O)N[C@@H](CC(N)=O)C(=O)N[C@H](C(=O)NCC(=O)N[C@@H](CO)C(=O)N[C@@H](CC(N)=O)C(=O)N[C@H](C(=O)N[C@@H](Cc1ccc(O)cc1)C(N)=O)[C@@H](C)O)C(C)C)[C@@H](C)O
CTa receptor human EC50 [1]: 600 pM
Amylin receptor human EC50 [2]: 61 pM

Further lines, results first:

CTa receptor human EC50 [1]: 458 pM
Amylin receptor human EC50 [2]: 101 pM
B1: N-alpha-[(S)-4-Carboxy-4-(19-carboxynonadecanoylamino)butyryl]-[Glu14,Arg17]-pramlintide (peptide)
peptide: {C20 diacid-γGlu}-KCNTATCATQRLAEFLRHSSNNFGPILPPTNVGSNTY-NH2
modifications: disulfide 2-7
SMILES: CC[C@H](C)[C@H](NC(=O)[C@@H]1CCCN1C(=O)CNC(=O)[C@H](Cc1ccccc1)NC(=O)[C@H](CC(N)=O)NC(=O)[C@H](CC(N)=O)NC(=O)[C@H](CO)NC(=O)[C@H](CO)NC(=O)[C@H](Cc1c[nH]cn1)NC(=O)[C@H](CCCNC(=N)N)NC(=O)[C@H](CC(C)C)NC(=O)[C@H](Cc1ccccc1)NC(=O)[C@H](CCC(=O)O)NC(=O)[C@H](C)NC(=O)[C@H](CC(C)C)NC(=O)[C@H](CCCNC(=N)N)NC(=O)[C@H](CCC(N)=O)NC(=O)[C@@H](NC(=O)[C@H](C)NC(=O)[C@@H]1CSSC[C@H](NC(=O)[C@H](CCCCN)NC(=O)CC[C@H](NC(=O)CCCCCCCCCCCCCCCCCCC(=O)O)C(=O)O)C(=O)N[C@@H](CC(N)=O)C(=O)N[C@@H]([C@@H](C)O)C(=O)N[C@@H](C)C(=O)N[C@@H]([C@@H](C)O)C(=O)N1)[C@@H](C)O)C(=O)N[C@@H](CC(C)C)C(=O)N1CCC[C@H]1C(=O)N1CCC[C@H]1C(=O)N[C@H](C(=O)N[C@@H](CC(N)=O)C(=O)N[C@H](C(=O)NCC(=O)N[C@@H](CO)C(=O)N[C@@H](CC(N)=O)C(=O)N[C@H](C(=O)N[C@@H](Cc1ccc(O)cc1)C(N)=O)[C@@H](C)O)C(C)C)[C@@H](C)O

CTa receptor human EC50 [1]: 200 pM
Amylin receptor human EC50 [2]: 130 pM
B3: N-alpha-[(S)-4-Carboxy-4-(19-carboxynonadecanoylamino)butyryl]-[Glu10,Glu14,His17]-pramlintide (peptide)
peptide: {C20 diacid-γGlu}-KCNTATCATERLAEFLHHSSNNFGPILPPTNVGSNTY-NH2
modifications: disulfide 2-7
SMILES: CC[C@H](C)[C@H](NC(=O)[C@@H]1CCCN1C(=O)CNC(=O)[C@H](Cc1ccccc1)NC(=O)[C@H](CC(N)=O)NC(=O)[C@H](CC(N)=O)NC(=O)[C@H](CO)NC(=O)[C@H](CO)NC(=O)[C@H](Cc1c[nH]cn1)NC(=O)[C@H](Cc1c[nH]cn1)NC(=O)[C@H](CC(C)C)NC(=O)[C@H](Cc1ccccc1)NC(=O)[C@H](CCC(=O)O)NC(=O)[C@H](C)NC(=O)[C@H](CC(C)C)NC(=O)[C@H](CCCNC(=N)N)NC(=O)[C@H](CCC(=O)O)NC(=O)[C@@H](NC(=O)[C@H](C)NC(=O)[C@@H]1CSSC[C@H](NC(=O)[C@H](CCCCN)NC(=O)CC[C@H](NC(=O)CCCCCCCCCCCCCCCCCCC(=O)O)C(=O)O)C(=O)N[C@@H](CC(N)=O)C(=O)N[C@@H]([C@@H](C)O)C(=O)N[C@@H](C)C(=O)N[C@@H]([C@@H](C)O)C(=O)N1)[C@@H](C)O)C(=O)N[C@@H](CC(C)C)C(=O)N1CCC[C@H]1C(=O)N1CCC[C@H]1C(=O)N[C@H](C(=O)N[C@@H](CC(N)=O)C(=O)N[C@H](C(=O)NCC(=O)N[C@@H](CO)C(=O)N[C@@H](CC(N)=O)C(=O)N[C@H](C(=O)N[C@@H](Cc1ccc(O)cc1)C(N)=O)[C@@H](C)O)C(C)C)[C@@H](C)O

CTa receptor human EC50 [1]: 527 pM
Amylin receptor human EC50 [2]: 151 pM
B5: N-alpha-{(S)-4-Carboxy-4-[(S)-4-Carboxy-4-(17-carboxyheptadecanoylamino)butyrylamino]butyryl}-[des1,Glu14,His17]-pramlintide (peptide)
peptide: {C18 diacid-γGlu-γGlu}-CNTATCATQRLAEFLHHSSNNFGPILPPTNVGSNTY-NH2
modifications: disulfide 1-6
SMILES: CC[C@H](C)[C@H](NC(=O)[C@@H]1CCCN1C(=O)CNC(=O)[C@H](Cc1ccccc1)NC(=O)[C@H](CC(N)=O)NC(=O)[C@H](CC(N)=O)NC(=O)[C@H](CO)NC(=O)[C@H](CO)NC(=O)[C@H](Cc1c[nH]cn1)NC(=O)[C@H](Cc1c[nH]cn1)NC(=O)[C@H](CC(C)C)NC(=O)[C@H](Cc1ccccc1)NC(=O)[C@H](CCC(=O)O)NC(=O)[C@H](C)NC(=O)[C@H](CC(C)C)NC(=O)[C@H](CCCNC(=N)N)NC(=O)[C@H](CCC(N)=O)NC(=O)[C@@H](NC(=O)[C@H](C)NC(=O)[C@@H]1CSSC[C@H](NC(=O)CC[C@H](NC(=O)CC[C@H](NC(=O)CCCCCCCCCCCCCCCCC(=O)O)C(=O)O)C(=O)O)C(=O)N[C@@H](CC(N)=O)C(=O)N[C@@H]([C@@H](C)O)C(=O)N[C@@H](C)C(=O)N[C@@H]([C@@H](C)O)C(=O)N1)[C@@H](C)O)C(=O)N[C@@H](CC(C)C)C(=O)N1CCC[C@H]1C(=O)N1CCC[C@H]1C(=O)N[C@H](C(=O)N[C@@H](CC(N)=O)C(=O)N[C@H](C(=O)NCC(=O)N[C@@H](CO)C(=O)N[C@@H](CC(N)=O)C(=O)N[C@H](C(=O)N[C@@H](Cc1ccc(O)cc1)C(N)=O)[C@@H](C)O)C(C)C)[C@@H](C)O
